Experimental findings from the supplement of paper PMC9112550, “Optimization of the antimicrobial peptide Bac7 by deep mutational scanning” (BMC Biology, 2022) are described below.

This data set concerns Escherichia coli TOP10. As to the kind of experiment: shrunken log2 fold change of peptide-encoding DNA abundance (4.5 h post-induction vs induction); higher = less antimicrobial activity (less host growth inhibition). The note with it: time post-induction: 4.5 h; library: site-saturation at positions 5, 18, 19, 20.
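Also: peptides expressed intracellularly from a pBAD plasmid library in pooled LB shake-flask culture, induced with 0.3% L-arabinose, DNA abundance read by NGS, three biological replicates, DESeq2 with apeglm shrinkage.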

On to RRIRVRPPRLPRPRPRPRRDPRP, for which the “shrunken log2 fold change” value is 0.141.
For RRIRPRPPRLPRPRPRPAILPRP the value was -0.339.
To RRIRFRPPRLPRPRPRPKQMPRP belongs 0.382.
RRIRSRPPRLPRPRPRPRSCPRP: the “shrunken log2 fold change” value amounted to 0.108.
For RRIRERPPRLPRPRPRPTTKPRP the value was 0.0648; for RRIRLRPPRLPRPRPRPADQPRP, 0.0203; for RRIRRRPPRLPRPRPRPAGQPRP, 1.41.
To RRIRRRPPRLPRPRPRPVSLPRP belongs -0.15.
For RRIRSRPPRLPRPRPRPIPFPRP the value was -0.518; for RRIRGRPPRLPRPRPRPYGTPRP, -0.0646.
Take RRIRQRPPRLPRPRPRPSNRPRP: the “shrunken log2 fold change” value is -0.158.
To RRIRVRPPRLPRPRPRPSDSPRP belongs -0.4.
In the case of RRIRLRPPRLPRPRPRPYTGPRP, the “shrunken log2 fold change” value is -0.125.
To RRIRRRPPRLPRPRPRPVPEPRP belongs 0.543; to RRIRYRPPRLPRPRPRPPNQPRP, -0.44; to RRIRYRPPRLPRPRPRPNKEPRP, -0.0622.
For RRIRRRPPRLPRPRPRPPRKPRP the value was 1.5.
For RRIRKRPPRLPRPRPRPSRAPRP the value was 0.521.
As for RRIRFRPPRLPRPRPRPNLSPRP, the “shrunken log2 fold change” value is -0.259.
To RRIRCRPPRLPRPRPRPHVVPRP belongs -0.137; to RRIRKRPPRLPRPRPRPEVAPRP, 1.9.
To RRIRYRPPRLPRPRPRPHRDPRP belongs -0.288; to RRIRDRPPRLPRPRPRPPWSPRP, 0.31; to RRIRPRPPRLPRPRPRPVQIPRP, -0.13.
For the sequence RRIRERPPRLPRPRPRPATGPRP, the “shrunken log2 fold change” value is -0.0619.
Turning to RRIRRRPPRLPRPRPRPWWAPRP, the “shrunken log2 fold change” value was determined as 0.0813.
In the case of RRIRSRPPRLPRPRPRPYSMPRP, the “shrunken log2 fold change” value is -0.721.
Consider RRIRERPPRLPRPRPRPPLAPRP, for which the “shrunken log2 fold change” value came to 0.433.
For RRIRARPPRLPRPRPRPQTIPRP, the “shrunken log2 fold change” value is -0.196.
For RRIRMRPPRLPRPRPRPFHWPRP the value was -0.184; for RRIRDRPPRLPRPRPRPYSWPRP, 0.016; for RRIRCRPPRLPRPRPRPEDEPRP, 0.076.
To RRIRVRPPRLPRPRPRPNNCPRP belongs -0.0726.
To RRIRKRPPRLPRPRPRPQTAPRP belongs 0.385.
As for RRIRDRPPRLPRPRPRPQAYPRP, the “shrunken log2 fold change” value was determined as 0.18.
With RRIRWRPPRLPRPRPRPFVDPRP, the “shrunken log2 fold change” value amounted to 0.0365.
To RRIRFRPPRLPRPRPRPATNPRP belongs -0.213; to RRIRNRPPRLPRPRPRPKIFPRP, 0.19.
For RRIRLRPPRLPRPRPRPNSDPRP the value was -0.2; for RRIRERPPRLPRPRPRPCVNPRP, -0.182; for RRIRDRPPRLPRPRPRPPWHPRP, 0.148.
To RRIRNRPPRLPRPRPRPFDVPRP belongs -0.0429; to RRIRIRPPRLPRPRPRPDVNPRP, 0.0617.
As for RRIRLRPPRLPRPRPRPVYTPRP, the “shrunken log2 fold change” value is -0.0286.
For RRIRRRPPRLPRPRPRPFYSPRP the value was -0.307; for RRIRHRPPRLPRPRPRPLRLPRP, 0.199.
On to RRIRWRPPRLPRPRPRPFGDPRP, for which the “shrunken log2 fold change” value is -0.249.
To RRIRCRPPRLPRPRPRPSSKPRP belongs -0.48; to RRIRERPPRLPRPRPRPVAHPRP, 0.0475; to RRIRNRPPRLPRPRPRPVIEPRP, -0.0754.
As for RRIRFRPPRLPRPRPRPSWIPRP, the “shrunken log2 fold change” value is -0.177.
To RRIRPRPPRLPRPRPRPPYLPRP belongs -0.376.
To RRIRYRPPRLPRPRPRPVDEPRP belongs -0.554.
For RRIRGRPPRLPRPRPRPHRSPRP the value was 0.188; for RRIRKRPPRLPRPRPRPWVQPRP, 0.0916.
Take RRIRSRPPRLPRPRPRPFGNPRP: the “shrunken log2 fold change” value is -0.00151.
To RRIRKRPPRLPRPRPRPYREPRP belongs -0.0243.
To RRIRARPPRLPRPRPRPGPVPRP belongs 0.611.
To RRIRRRPPRLPRPRPRPMAQPRP belongs 0.318; to RRIRSRPPRLPRPRPRPVYGPRP, -0.355; to RRIRLRPPRLPRPRPRPRYQPRP, -0.0283.
Regarding RRIRARPPRLPRPRPRPSMEPRP, the “shrunken log2 fold change” value came to 0.146.
To RRIRSRPPRLPRPRPRPNKLPRP belongs -0.643.
With RRIRCRPPRLPRPRPRPSHDPRP, the “shrunken log2 fold change” value is -0.235.
To RRIRNRPPRLPRPRPRPVQQPRP belongs 0.171.
For RRIRFRPPRLPRPRPRPCCHPRP the value was -0.415.
To RRIRTRPPRLPRPRPRPNMYPRP belongs -0.637; to RRIRMRPPRLPRPRPRPFISPRP, -0.4; to RRIRLRPPRLPRPRPRPNHYPRP, -0.505.
In the case of RRIRCRPPRLPRPRPRPLYYPRP, the “shrunken log2 fold change” value was -1.03.
As for RRIRCRPPRLPRPRPRPSMEPRP, the “shrunken log2 fold change” value is -0.344.
For RRIRTRPPRLPRPRPRPPWSPRP the value was 0.194; for RRIRRRPPRLPRPRPRPHKSPRP, -0.0141.
For RRIRYRPPRLPRPRPRPVLDPRP the value was -0.265; for RRIRARPPRLPRPRPRPKPIPRP, 0.319.
To RRIRMRPPRLPRPRPRPECNPRP belongs 0.0477.
For the sequence RRIRMRPPRLPRPRPRPLADPRP, the “shrunken log2 fold change” value worked out at 3.11.
With RRIRTRPPRLPRPRPRPLHPPRP, the “shrunken log2 fold change” value worked out at 0.375.
For RRIRWRPPRLPRPRPRPFEDPRP the value was 0.104; for RRIRMRPPRLPRPRPRPRLKPRP, 1.82; for RRIRQRPPRLPRPRPRPGFLPRP, 0.107.
For RRIRFRPPRLPRPRPRPAPYPRP the value was 1.75; for RRIRLRPPRLPRPRPRPHIKPRP, -0.528.
For RRIRKRPPRLPRPRPRPIVLPRP the value was -0.299.
As to RRIRHRPPRLPRPRPRPIHNPRP, the “shrunken log2 fold change” value was -0.545.
For RRIRQRPPRLPRPRPRPKRGPRP the value was 0.38; for RRIRKRPPRLPRPRPRPSLCPRP, -0.239; for RRIRWRPPRLPRPRPRPRMHPRP, 0.485.
Take RRIRKRPPRLPRPRPRPYRCPRP: the “shrunken log2 fold change” value is -0.12.
Turning to RRIRVRPPRLPRPRPRPKAGPRP, the “shrunken log2 fold change” value is 0.0641.
For RRIRQRPPRLPRPRPRPMEHPRP the value was 0.0112.
